Drawing on patent US20080311122, “Antagonists of Hmgb1 and/or Rage and Methods of Use Thereof” (Medimmune, LLC, published 2008), this text covers binding result and Kd for four molecules.

Series [1] has as its target T1, HMGB1 (native, calf/bovine thymus) (Bos taurus, UniProt P10103 P10103:2-215). As to the kind of experiment: non-stimulatory CpG-A control sequence bound; tryptophan fluorescence. The note with it: tags: none; purified from bovine thymus at Medimmune.
The target in series [2] is T1, HMGB1 (native, calf/bovine thymus). Kind of series: random DNA not bound. The settings on record: tags: none; purified from bovine thymus at Medimmune.
Series [3] shares this target. Kind of series: data not shown; p546 states conversely that HMGB1 binds both A and B class ODN. The settings on record: tags: none; purified from bovine thymus at Medimmune.
Series [4] concerns the target T2, HMGB1 + RAGE/Fc complex (Bos taurus / Mus musculus, UniProt P10103;Q62151 P10103:2-215,Q62151:23-340).
T2 chain 1: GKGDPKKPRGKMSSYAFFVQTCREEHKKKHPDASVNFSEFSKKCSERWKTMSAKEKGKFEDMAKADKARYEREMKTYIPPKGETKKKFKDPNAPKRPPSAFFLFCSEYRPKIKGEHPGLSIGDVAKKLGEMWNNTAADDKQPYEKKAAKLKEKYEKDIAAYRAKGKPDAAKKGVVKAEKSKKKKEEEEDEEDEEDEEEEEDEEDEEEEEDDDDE
T2 chain 2: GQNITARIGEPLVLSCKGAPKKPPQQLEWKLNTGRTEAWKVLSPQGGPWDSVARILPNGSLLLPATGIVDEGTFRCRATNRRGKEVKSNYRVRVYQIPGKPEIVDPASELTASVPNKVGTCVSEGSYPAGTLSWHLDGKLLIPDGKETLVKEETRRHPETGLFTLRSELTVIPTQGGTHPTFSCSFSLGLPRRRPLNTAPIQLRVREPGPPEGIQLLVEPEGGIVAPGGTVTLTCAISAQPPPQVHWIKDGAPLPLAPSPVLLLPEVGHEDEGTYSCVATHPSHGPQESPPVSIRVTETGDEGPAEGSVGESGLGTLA
As to the kind of experiment: HMGB1/CpG-B complex failed to augment binding to RAGE; data not shown. The settings on record: tags: thymus HMGB1; RAGE Fc fusion (R&D Systems).

The target of another series is T3, HMGB1 A-box peptide (Homo sapiens, UniProt P09429 SEQ:1-77).
T3 sequence: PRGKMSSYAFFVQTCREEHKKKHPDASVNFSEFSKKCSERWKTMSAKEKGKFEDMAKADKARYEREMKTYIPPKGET
As to the kind of experiment: affinity comparable to full-length HMGB1; data not shown; stated only as CpG DNA. The settings on record: protein: synthetic; tags: synthetic peptide, New England Peptide; label: biotin (ELISA). How it is done:
(§1) CpG ELISA: Proteins or peptides were diluted in PBS to the concentration of 5 μg/ml and coated onto plates at 4° C. o/n. Plates were blocked with 4% dry milk in PBS. Biotin labeled CpG-A alone or in complex with HMGB1 were incubated in the plates at 37° C. for 1 hr. and detected with HRP labeled strep-avidin.

A further series has as its target HMGB1 B-box peptide (Homo sapiens, UniProt P09429 SEQ:1-69). The series is described as above. The note with it: protein: synthetic; tags: synthetic peptide, New England Peptide; label: biotin (ELISA). As to the method: as §1
Background: In an ELISA, binding on a coated surface is turned into a signal by an enzyme label.

Another series deals with T4, RAGE/Fc (Mus musculus, UniProt Q62151 Q62151:23-340).
T4 chain: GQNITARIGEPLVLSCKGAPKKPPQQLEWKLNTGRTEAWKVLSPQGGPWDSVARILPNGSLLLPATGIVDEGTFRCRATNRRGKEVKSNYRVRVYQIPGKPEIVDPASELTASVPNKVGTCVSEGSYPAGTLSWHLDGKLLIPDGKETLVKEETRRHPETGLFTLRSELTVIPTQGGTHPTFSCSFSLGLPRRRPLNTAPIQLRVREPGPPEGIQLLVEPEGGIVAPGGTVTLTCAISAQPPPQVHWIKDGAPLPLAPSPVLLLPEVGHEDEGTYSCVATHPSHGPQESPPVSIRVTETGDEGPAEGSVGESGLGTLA
As to the kind of experiment: ELISA, CpG-A alone on immobilized RAGE/Fc. The note with it: tags: Fc fusion, R&D Systems; chain copies: 2; label: biotin (ELISA).

Series [5] concerns the target T1, HMGB1 (native, calf/bovine thymus). Kind of series: apparent Kd; intrinsic tryptophan fluorescence quench, 1.7 uM HMGB1, 1:10 DPBS, 25 C. The settings on record: tags: none; purified from bovine thymus at Medimmune; label: biotin (ELISA). As to the method: Tryptophan emission for CpG-A binding to HMGB1: Fluorescence titrations and spectra of HMGB-1 were carried out at 25° C. with a SPEX Fluoromax-3 spectrofluorimeter, monitoring the HMGB-1 intrinsic tryptophan emission at 347 nm (8 nm bandwidth) with 280 nm excitation (3 nm bandwidth) in a masked capped dual-pathlength (0.2×1.0 cm) quartz cell (Hellma Cells, Inc., Jamaica, N.Y.) upon stepwise addition of CpG-A (0.5 mM) to a 1.7 μM solution of HMGB-1 in 1:10 Dulbecco Phosphate Buffered Saline (PBS) solution (Invitrogen, Carlsbad, Calif.). Complex formation between HMGB-1 and the nucleic acid was monitored by the change in the initial fluorescence of the protein. HMGB-1 fractional saturation was inferred from the ratio of observed fluorescence change to maximal change (at saturation), Fₗᵢₘ, for each of the nucleic acid additions. Binding affinity was calculated from graphs of relative fluorescence intensity versus [nucleic acid base]/[protein].The occluded binding site size (n) was derived from the intersection of the extrapolated initial slope with the limiting fluorescence plateau in the equilibrium binding isotherms. The measurements for assessment of Tryptophan emission are reviewed in detail in Lakowicz, 2000, Photochem. Photobiol. 72, 421-437.
The binding of immobilized HMGB1 to soluble CpG-A was determined by ELISA (FIG. 33, top left). […]

The target of series [6] is T2, HMGB1 + RAGE/Fc complex. Kind of series: ELISA; CpG-A associates with immobilized RAGE/Fc only when pre-complexed with HMGB1; CpG-A lowers EC50 of HMGB1-RAGE binding 100-1000 fold. The settings on record: tags: thymus HMGB1; RAGE Fc fusion (R&D Systems); label: biotin (ELISA). How it is done:
as §1

As to GGGGGAGCATGCTGGGGGGC (ssDNA) [control ODN for CpG-A (non-stimulatory)], the binding result in [1] is “binds”.

As for GGTCGTTCCATTTTACTCCAC (ssDNA) [random DNA ODN], the binding result in series [2] is recorded as “no binding”.

Take TCGTCGTTTTGTCGTTTTGTCGTT (ssDNA) [CpG-B (ODN 2006)]: the binding result (in [3]; in the series with HMGB1 + RAGE/Fc complex [4]) was “no binding” in each case.

Regarding GGGGGACGATCGTCGGGGGG (ssDNA) [CpG-A (ODN2216)], the binding result in the series with HMGB1 A-box peptide is given as “binds”; with HMGB1 B-box peptide, “binds”; with RAGE/Fc, “no binding”; in the series with HMGB1 + RAGE/Fc complex [6] it was “binds”. Moreover, the Kd in [5] was 70 nM.
